In test [1] the target is T1, apical domain of human CD71 (human, UniProt P02786 189-383, limits assumed).
T1 construct: domain: apical domain; Screen 4 panned on human apical domains, the ELISA text says only 'apical domain'
The test is described as follows: primary ELISA, RLU over HSA. (An ELISA detects its analyte on a solid surface through an enzyme-linked reagent.)

Test [2] concerns the target T2, human CD71 extracellular domain (human, UniProt P02786 89-760, biotinylated).
T2 construct: also called hCD71; CD71-ECD
The test is described as follows: primary ELISA, RLU over HSA.

Test [3] has as its target T1, apical domain of human CD71. The test is described as follows: primary ELISA. Note: test concentration or dose not given here.
Test [4] addresses T2, human CD71 extracellular domain. The test is described as follows: primary ELISA. Note: test concentration or dose not given here.

T1 sequence (P02786 189-383 limits assumed): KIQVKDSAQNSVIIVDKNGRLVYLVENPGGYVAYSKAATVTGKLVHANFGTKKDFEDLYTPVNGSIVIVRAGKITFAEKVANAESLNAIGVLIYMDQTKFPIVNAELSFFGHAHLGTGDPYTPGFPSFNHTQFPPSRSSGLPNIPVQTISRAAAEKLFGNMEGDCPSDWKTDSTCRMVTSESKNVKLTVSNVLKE
T2 sequence (P02786 89-760): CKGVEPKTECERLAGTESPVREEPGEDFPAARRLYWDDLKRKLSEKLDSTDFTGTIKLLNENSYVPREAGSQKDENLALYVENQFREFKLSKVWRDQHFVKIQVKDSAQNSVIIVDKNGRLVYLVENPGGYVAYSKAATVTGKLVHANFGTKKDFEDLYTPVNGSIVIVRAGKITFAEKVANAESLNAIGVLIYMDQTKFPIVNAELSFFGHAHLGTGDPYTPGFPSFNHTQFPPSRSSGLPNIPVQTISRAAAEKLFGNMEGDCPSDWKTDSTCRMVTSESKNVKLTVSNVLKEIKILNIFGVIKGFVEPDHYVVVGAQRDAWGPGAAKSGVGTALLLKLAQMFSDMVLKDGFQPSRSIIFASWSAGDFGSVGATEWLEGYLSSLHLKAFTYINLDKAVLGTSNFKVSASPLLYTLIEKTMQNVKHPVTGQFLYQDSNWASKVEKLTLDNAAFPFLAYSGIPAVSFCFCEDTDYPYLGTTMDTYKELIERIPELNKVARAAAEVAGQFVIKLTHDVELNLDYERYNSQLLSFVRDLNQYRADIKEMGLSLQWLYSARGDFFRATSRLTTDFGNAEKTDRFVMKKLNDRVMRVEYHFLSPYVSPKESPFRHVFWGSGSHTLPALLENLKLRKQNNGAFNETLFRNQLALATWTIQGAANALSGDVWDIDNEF

B1: CD71-binding FN3 domain of SEQ ID NO: 480 (designed binder)
chain: MLPAPKNLVVSRVTEDSARLSWTAPDAAFDSFEIDYAEDIREGEAIALVVPGSERSYDLTGLKPGTEYWVSIGGVKGGTWSRPLFAPFTT
For B1, the “Apical domain:HSA” value in test [1] is 181. Besides, the “hCD71:HSA” value in test [2] was 70. Further, the RLU in test [3] worked out at 4.27e+06 RLU; in test [4] it was 1.66e+06 RLU.

B2: CD71-binding FN3 domain of SEQ ID NO: 458 (designed binder)
chain: MLPAPKNLVVSRVTEDSARLSWTAPDAAFDSFLDLLPSNWDIAGEAIVLTVPGSERSYDLTGLKPGTEYHVNILGVKGGKESLPLVANFTT
B2: the “Apical domain:HSA” value in test [1] amounted to 69. The “hCD71:HSA” value in test [2] stood at 51. Besides, the RLU in test [3] is 4.64e+06 RLU; in test [4] it was 3.44e+06 RLU.

B3: CD71-binding FN3 domain of SEQ ID NO: 471 (designed binder)
chain: MLPAPKNLVVSRVTEDSARLSWTAPDAAFDSFTIWYYESPTGGEAIVLTVPGSERSYDLTGLKPGTEYMVFIQGVKGGCFSTPLYAIFTT
B3: the “Apical domain:HSA” value in test [1] is 98. Besides, the “hCD71:HSA” value in test [2] turned out to be 42. The RLU was found to be 3.88e+06 RLU in test [3] and 1.65e+06 RLU in test [4].

B4: CD71-binding FN3 domain of SEQ ID NO: 455 (designed binder)
chain: MLPAPKNLVVSRVTEDSARLSWTAPDAAFDSFTISYPEEAKHGEAIVLTVPGSERSYDLTGLKPGTEYGVPINGVKGGVSSLPLSAIFTT
In the case of B4, the “Apical domain:HSA” value in test [1] amounted to 171. Moreover, the “hCD71:HSA” value in test [2] came to 55. Further, the RLU in test [3] came to 4.83e+06 RLU; in test [4], 1.56e+06 RLU.

B5: CD71-binding FN3 domain of SEQ ID NO: 488 (designed binder)
chain: MLPAPKNLVVSRVTEDSARLSWTAPDAAFDSFIIQYGEYLRWGEAIVLTVPGSERSYDLTGLKPGTEYQVEIYGVKGGPLSKPLSAIFTT
As to B5, in test [1], the “Apical domain:HSA” value is 103. In addition, the “hCD71:HSA” value in test [2] came out at 53. For the same molecule, the RLU was 6.14e+06 RLU in test [3] and 3.18e+06 RLU in test [4].

B6: CD71-binding FN3 domain of SEQ ID NO: 484 (designed binder)
chain: MLPAPKNLVVSRVTEDSARLSWTAPDAAFDSFEIAYQELSLWGEAIVLTVPGSERSYDLTGLKPGTEYYVHIGGVKGGIWSSPLSAISTT
In the case of B6, the “Apical domain:HSA” value in test [1] turned out to be 113. In test [2], the “hCD71:HSA” value worked out at 35. The values for the RLU in test [3] and in test [4] were 4.69e+06 RLU and 1.47e+06 RLU, respectively.

B7: CD71-binding FN3 domain of SEQ ID NO: 468 (designed binder)
chain: MLPAPKNLVVSRVTEDSARLSWTAPDAAFDSFLIQYDEEGVWGEAIVLTVPGSERSYDLTGLKPGTEYSVGIGGVKGGWSSVPLSAIFTT
Take B7: in test [1], the “Apical domain:HSA” value amounted to 24. Besides, in test [2], the “hCD71:HSA” value is 71. The figures for the RLU in test [3] and in test [4] were 3.58e+06 RLU and 1.05e+06 RLU, respectively.

B8: CD71-binding FN3 domain of SEQ ID NO: 527 (designed binder)
chain: MLPAPKNLVVSRVTEDSARLSWTAPDAAFDSFFIGYLEPQPPGEAIHLYVPGSERSYDLTGLKPGTEYNVTIQGVKGGFPSEPLIANFTT
Turning to B8, the “Apical domain:HSA” value in test [1] stood at 15. In addition, in test [2], the “hCD71:HSA” value was found to be 15. In addition, the results for the RLU in test [3] and in test [4] were 6.4e+06 RLU and 6.59e+06 RLU, respectively.

B9: CD71-binding FN3 domain of SEQ ID NO: 542 (designed binder)
chain: MLPAPKNLVVSRVTEDSARLSWTAPDAAFDSFFIGYLEPQPPGEAIELFVPGSERSYDLTGLKPGTEYNVTIQGVKGGFPSMPLSAIFTT
For the molecule B9, in test [1], the “Apical domain:HSA” value is 237. Besides, the “hCD71:HSA” value in test [2] is 169. Also, the RLU came to 3e+06 RLU in test [3] and 2.13e+06 RLU in test [4].

B10: CD71-binding FN3 domain of SEQ ID NO: 544 (designed binder)
chain: MLPAPKNLVVSRVTEDSARLSWTAPDAAFDSFFIGYLEPQPPGEAIALLVPGSERSYDLTGLKPGTEYNVTIQGVKGGFPSHPLSASFTT
Turning to B10, the “Apical domain:HSA” value in test [1] came to 243. For the same molecule, the “hCD71:HSA” value in test [2] stood at 241. Moreover, the RLU in test [3] was determined as 4.07e+06 RLU; in test [4] it was 4.04e+06 RLU.

B11: CD71-binding FN3 domain of SEQ ID NO: 539 (designed binder)
chain: MLPAPKNLVVSRVTEDSARLSWTAPDAAFDSFFIGYLEPQPPGEAIHLFVPGSERSYDLTGLKPGTEYNVTIQGVKGGFPSDPLHAAFTT
For B11, the “Apical domain:HSA” value in test [1] worked out at 205. Also, in test [2], the “hCD71:HSA” value amounted to 167. For the same molecule, the RLU in test [3] was 6.08e+06 RLU; in test [4], 4.94e+06 RLU.

B12: CD71-binding FN3 domain of SEQ ID NO: 534 (designed binder)
chain: MLPAPKNLVVSRVTEDSARLSWTAPDAAFDSFFIGYLEPQPPGEAIHLLVPGSERSYDLTGLKPGTEYNVTIQGVKGGFPSGPLQASFTT
In the case of B12, the “Apical domain:HSA” value in test [1] came out at 207. Further, the “hCD71:HSA” value in test [2] was found to be 187. The results for the RLU in test [3] and in test [4] were 5.76e+06 RLU and 5.2e+06 RLU, respectively.

B13: CD71-binding FN3 domain of SEQ ID NO: 543 (designed binder)
chain: MLPAPKNLVVSRVTEDSARLSWTAPDAAFDSFFIGYLEPQPPGEAISLYVPGSERSYDLTGLKPGTEYNVTIQGVKGGFPSIPLVAVFTT
As to B13, the “Apical domain:HSA” value in test [1] came to 182. Further, in test [2], the “hCD71:HSA” value stood at 207. In addition, the RLU in test [3] was 4.65e+06 RLU; in test [4], 5.29e+06 RLU.

B14: CD71-binding FN3 domain of SEQ ID NO: 530 (designed binder)
chain: MLPAPKNLVVSRVTEDSARLSWTAPDAAFDSFFIGYLEPQPPGEAIDLLVPGSERSYDLTGLKPGTEYNVTIQGVKGGFPSEPLFAHFTT
With B14, the “Apical domain:HSA” value in test [1] turned out to be 281. In addition, the “hCD71:HSA” value in test [2] came out at 289. Moreover, the RLU in test [3] turned out to be 4.48e+06 RLU; in test [4], 4.61e+06 RLU.

B15: CD71-binding FN3 domain of SEQ ID NO: 545 (designed binder)
chain: MLPAPKNLVVSRVTEDSARLSWTAPDAAFDSFFIGYLEPQPPGEAISLVVPGSERSYDLTGLKPGTEYNVTIQGVKGGFPSNPLIATFTT
With B15, the “Apical domain:HSA” value in test [1] was 327. In addition, the “hCD71:HSA” value in test [2] was determined as 327. The RLU in test [3] and in test [4] was 4.22e+06 RLU in each case.

B16: CD71-binding FN3 domain of SEQ ID NO: 528 (designed binder)
chain: MLPAPKNLVVSRVTEDSARLSWTAPDAAFDSFFIGYLEPQPPGEAITLLVPGSERSYDLTGLKPGTEYNVTIQGVKGGFPSIPLIAIFTT
As for B16, the “Apical domain:HSA” value in test [1] was 182. In addition, the “hCD71:HSA” value in test [2] amounted to 169. The RLU in test [3] was 5.58e+06 RLU; in test [4], 5.18e+06 RLU.

B17: CD71-binding FN3 domain of SEQ ID NO: 533 (designed binder)
chain: MLPAPKNLVVSRVTEDSARLSWTAPDAAFDSFFIGYLEPQPPGEAINLFVPGSERSYDLTGLKPGTEYNVTIQGVKGGFPSMPLSAIFTT
With B17, the “Apical domain:HSA” value in test [1] worked out at 241. In addition, the “hCD71:HSA” value in test [2] was 146. Also, the RLU in test [3] stood at 5.25e+06 RLU; in test [4], 3.18e+06 RLU.

B18: CD71-binding FN3 domain of SEQ ID NO: 529 (designed binder)
chain: MLPAPKNLVVSRVTEDSARLSWTAPDAAFDSFFIGYLEPQPPGEAIDLYVPGSERSYDLTGLKPGTEYNVTIQGVKGGFPSLPLQAHFTT
Regarding B18, the “Apical domain:HSA” value in test [1] is 366. For the same molecule, the “hCD71:HSA” value in test [2] stood at 466. For the same molecule, the RLU in test [3] stood at 3.24e+06 RLU; in test [4], 4.13e+06 RLU.

B19: CD71-binding FN3 domain of SEQ ID NO: 541 (designed binder)
chain: MLPAPKNLVVSRVTEDSARLSWTAPDAAFDSFFIGYLEPQPPGEAIDLWVPGSERSYDLTGLKPGTEYNVTIQGVKGGFPSMPLDAYFTT
B19: in test [1], the “Apical domain:HSA” value came to 140. The “hCD71:HSA” value in test [2] came out at 73. The RLU in test [3] was determined as 3.42e+06 RLU; in test [4], 1.79e+06 RLU.

B20: CD71-binding FN3 domain of SEQ ID NO: 535 (designed binder)
chain: MLPAPKNLVVSRVTEDSARLSWTAPDAAFDSFFIGYLEPQPPGEAIHLQVPGSERSYDLTGLKPGTEYNVTIQGVKGGFPSDPLVAKFTT
Regarding B20, the “Apical domain:HSA” value in test [1] was determined as 285. In addition, the “hCD71:HSA” value in test [2] is 362. Further, the RLU in test [3] is 3.38e+06 RLU; in test [4], 4.29e+06 RLU.

B21: CD71-binding FN3 domain of SEQ ID NO: 538 (designed binder)
chain: MLPAPKNLVVSRVTEDSARLSWTAPDAAFDSFFIGYLEPQPPGEAIDLYVPGSERSYDLTGLKPGTEYNVTIQGVKGGFPSHPLVAVFTT
On to B21, for which, in test [1], the “Apical domain:HSA” value turned out to be 164. The “hCD71:HSA” value in test [2] was 185. The RLU in test [3] was 4.93e+06 RLU; in test [4], 5.57e+06 RLU.

B22: CD71-binding FN3 domain of SEQ ID NO: 466 (designed binder)
chain: MLPAPKNLVVSRVTEDSARLSWTAPDAAFDSFYIAYAEPRPDGEAIWLLVPGSERSYDLTGLKPGTEYSVLIHGVKGGLLSSPLSADFTT
B22: the “Apical domain:HSA” value in test [1] was 279. For the same molecule, in test [2], the “hCD71:HSA” value amounted to 70. Besides, the figures for the RLU in test [3] and in test [4] were 4.3e+06 RLU and 1.08e+06 RLU, respectively.

B23: CD71-binding FN3 domain of SEQ ID NO: 540 (designed binder)
chain: MLPAPKNLVVSRVTEDSARLSWTAPDAAFDSFYIAYAEPRPDGEAIILVVPGSERSYDLTGLKPGTEYSVLIHGVKGGLLSSPLDAGFTT
Turning to B23, the “Apical domain:HSA” value in test [1] came out at 306. In addition, in test [2], the “hCD71:HSA” value was 198. Moreover, the RLU was determined as 5.85e+06 RLU in test [3] and 3.79e+06 RLU in test [4].

B24: CD71-binding FN3 domain of SEQ ID NO: 463 (designed binder)
chain: MLPAPKNLVVSRVTEDSARLSWTAPDAAFDSFLILYIEQDHRGEAIVLTVPGSERSYDLTGLKPGTEYWVHITGVKGGYYSAPLSAIFTT
Consider B24, for which the “Apical domain:HSA” value in test [1] was determined as 89. The “hCD71:HSA” value in test [2] was 91. Also, the RLU in test [3] stood at 5.51e+06 RLU; in test [4], 5.62e+06 RLU.

B25: CD71-binding FN3 domain of SEQ ID NO: 477 (designed binder)
chain: MLPAPKNLVVSRVTEDSARLSWTAPDAAFDSFEIAYFETCRTGEAIVLTVPGSERSYDLTGLKPGTEYGVSIYGVKGGAHSGPLSAIFTT
Take B25: the “Apical domain:HSA” value in test [1] turned out to be 370. Also, the “hCD71:HSA” value in test [2] was found to be 289. Moreover, the RLU in test [3] worked out at 2.4e+06 RLU; in test [4] it was 1.88e+06 RLU.

These data come from patent publication US20260151494A1 (ARO BIOTHERAPEUTICS, published 2026).
